Assay results: PMC10162664, “Microbial β-glucuronidases drive human periodontal disease etiology” (Science Advances, 2023)

Assays:
[1] = molecular target: Tannerella forsythia GUS mL1 (mini-loop 1 β-glucuronidase) (Tannerella forsythia); experiment: SEC-MALS; Superdex 200; protein at 2 mg/ml in 20 mM Hepes (pH 7.4), 300 mM NaCl; 50 μl injected, 0.5 ml/min
[2] = molecular target: Tannerella forsythia GUS mL1 (mini-loop 1 β-glucuronidase) (Tannerella forsythia); experiment: crystal structure; hanging drop vapor diffusion at room temperature; quaternary structure seen in the crystal
[3] = molecular target: Treponema lecithinolyticum GUS L1 (loop 1 β-glucuronidase) (Treponema lecithinolyticum); experiment: SEC-MALS; Superdex 200; protein at 2 mg/ml in 20 mM Hepes (pH 7.4), 300 mM NaCl; 50 μl injected, 0.5 ml/min
[4] = molecular target: Treponema lecithinolyticum GUS L1 (loop 1 β-glucuronidase) (Treponema lecithinolyticum); experiment: crystal structure; hanging drop vapor diffusion at room temperature; quaternary structure seen in the crystal
[5] = test system: Cc1cc(=O)oc2cc(O[C@@H]3O[C@H](C(=O)O)[C@@H](O)[C@H](O)[C@H]3O)ccc12; experiment: purified protein; conditions: pH 5.0
[6] = molecular target: T1, TlGUS L1 (Treponema lecithinolyticum β-glucuronidase) (Treponema lecithinolyticum, UniProt A0AA82WPE8); experiment: […] Å crystal structure; format: binding
T1 construct: recombinant, N-terminal (His)6 tag retained

[7] = molecular target: T1, TlGUS L1 (Treponema lecithinolyticum β-glucuronidase); experiment: […] Å crystal structure (as ciprofloxacin-GlcA conjugate formed with PNPG); IC50; format: biochemical
[8] = molecular target: Tannerella forsythia GUS L2 (loop 2 β-glucuronidase) (Tannerella forsythia); experiment: SEC-MALS; Superdex 200; protein at 2 mg/ml in 20 mM Hepes (pH 7.4), 300 mM NaCl; 50 μl injected, 0.5 ml/min
[9] = molecular target: Tannerella forsythia GUS L2 (loop 2 β-glucuronidase) (Tannerella forsythia); experiment: crystal structure; hanging drop vapor diffusion at room temperature; quaternary structure seen in the crystal
[10] = molecular target: T1, TlGUS L1 (Treponema lecithinolyticum β-glucuronidase); experiment: […] Å crystal structure (as UNC4917-GlcA conjugate formed with PNPG); 4-MUG hydrolysis IC50; format: biochemical
purified protein = substrate: Cc1cc(=O)oc2cc(O[C@@H]3O[C@H](C(=O)O)[C@@H](O)[C@H](O)[C@H]3O)ccc12; experiment: purified protein; conditions: pH 5.0; remark: listed apart in the source

With “Tannerella forsythia GUS mL1 (mini-loop 1 β-glucuronidase) (enzyme)” the stoichiometry N [1] was 4 and the stoichiometry N [2] was 4.

In the case of “Treponema lecithinolyticum GUS L1 (loop 1 β-glucuronidase) (enzyme)”, the stoichiometry N [3] is reported as 4 and the stoichiometry N [4] is reported as 4.

“TlGUS L1 (Treponema lecithinolyticum β-glucuronidase) (Treponema lecithinolyticum)” was tested, and the Km [5] was 6.8 ± 1 µM, the kcat [5] was 19 ± 1 s⁻¹ and the kcat/Km [5] was 2.8e+06 M⁻¹ s⁻¹.

In the case of CNc1ccc2c(n1)sc1c(N3CCN([C@@H]4O[C@H](C(=O)O)[C@@H](O)[C@H](O)[C@H]4O)CC3)nc(NC)nc12 [UNC4917-GlcA, UNC4917-GlcA conjugate], the “1.75 Å crystal structure” value [6] is reported as “The UNC4917-GlcA conjugate is located within the active site”.

In the case of O=C(O)c1cn(C2CC2)c2cc(N3CCNCC3)c(F)cc2c1=O [ciprofloxacin], the IC50 [7] is reported as 18.3 µM.

“Tannerella forsythia GUS L2 (loop 2 β-glucuronidase) (enzyme)” was tested, and the stoichiometry N [8] was 2 and the stoichiometry N [9] was 2.

CNc1ccc2c(n1)sc1c(N3CCNCC3)nc(NC)nc12 [UNC4917] gave an IC50 [10] of 2.5 µM.

B1: human GUS (β-glucuronidase) (Homo sapiens) (protein)
chain: LQGGMLYPQESPSRECKELDGLWSFRADFSDNRRRGFEEQWYRRPLWESGPTVDMPVPSSFNDISQDWRLRHFVGWVWYEREVILPERWTQDLRTRVVLRIGSAHSYAIVWVNGVDTLEHEGGYLPFEADISNLVQVGPLPSRLRITIAINNTLTPTTLPPGTIQYLTDTSKYPKGYFVQNTYFDFFNYAGLQRSVLLYTTPTTYIDDITVTTSVEQDSGLVNYQISVKGSNLFKLEVRLLDAENKVVANGTGTQGQLKVPGVSLWWPYLMHERPAYLYSLEVQLTAQTSLGPVSDFYTLPVGIRTVAVTKSQFLINGKPFYFHGVNKHEDADIRGKGFDWPLLVKDFNLLRWLGANAFRTSHYPYAEEVMQMCDRYGIVVIDECPGVGLALPQFFNNVSLHHHMQVMEEVVRRDKNHPAVVMWSVANEPASHLESAGYYLKMVIAHTKSLDPSRPVTFVSNSNYAADKGAPYVDVICLNSYYSWYHDYGHLELIQLQLATQFENWYKKYQKPIIQSEYGAETIAGFHQDPPLMFTEEYQKSLLEQYHLGLDQKRRKYVVGELIWNFADFMTEQSPTRVLGNKKGIFTRQRQPKSAAFLLRERYWKIANETRYPHSVAKSQCLENSLFT
B1 gave a Km (purified protein) of 84 ± 7 µM, a kcat (purified protein) of 2.2 s⁻¹ and a kcat/Km (purified protein) of 26000 M⁻¹ s⁻¹.
